From doi:10.1101/871988 come the findings set out here.

In this assay the target is recombinant human scavenger receptor B1 (SRB1) (human) (UniProt Q8WTV0). In words: SPR.
Chain of UniProt Q8WTV0 (Q8WTV0 whole entry): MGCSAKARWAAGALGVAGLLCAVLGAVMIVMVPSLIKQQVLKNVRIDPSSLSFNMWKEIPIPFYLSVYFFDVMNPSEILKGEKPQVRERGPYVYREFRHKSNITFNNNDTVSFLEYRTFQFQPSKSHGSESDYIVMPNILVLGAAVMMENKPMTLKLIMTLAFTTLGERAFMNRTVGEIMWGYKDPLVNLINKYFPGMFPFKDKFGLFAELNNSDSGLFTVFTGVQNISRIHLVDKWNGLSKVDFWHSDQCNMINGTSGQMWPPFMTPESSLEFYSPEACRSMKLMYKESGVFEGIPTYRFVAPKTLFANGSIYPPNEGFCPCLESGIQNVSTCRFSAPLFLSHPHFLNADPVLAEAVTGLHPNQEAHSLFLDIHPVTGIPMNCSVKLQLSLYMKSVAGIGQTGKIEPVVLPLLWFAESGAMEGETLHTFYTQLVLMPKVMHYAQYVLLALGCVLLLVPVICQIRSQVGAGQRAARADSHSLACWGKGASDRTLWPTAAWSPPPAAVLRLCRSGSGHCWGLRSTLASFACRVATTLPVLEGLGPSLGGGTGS

With “recombinant dengue virus non-structural protein 1 (DENV NS1) (natural protein)”, the Kd worked out at 47 nM.

For the substance “human high density lipoprotein (HDL) (from UniProt P02647 19-267) (complex)”, the Kd came out at 18.7 nM.

As a reminder, the Kd is the equilibrium constant for the complex coming apart.
